Data: patent US20160272693A1 (ZEALAND PHARMA A S, published 2016)
*1 amine or outer side, *2 acyl side, *3 side chain or, on linkers, in order; H or OH if unused. Bridges are numbered along the chain shown (N, C = ends). [ ]: non-standard residue; d: D form. The star is where a group is joined. C20 diacid = O=C(O)CCCCCCCCCCCCCCCCCCC(=O)*; γGlu = O=C(O)[C@H](CCC(=O)[*:2])N[*:1]; Hyp = O=C(O)[C@@H]1C[C@@H](O)CN1; NMeI = CC[C@H](C)[C@H](NC)C(=O)O; Sar = CNCC(=O)O

T1: human amylin receptor 3 (hAMYR3), hCTR2 co-expressed with human receptor activity modifying protein 3 (hRAMP3) (human, UniProt P30988 25-474; O60896 24-148)
T1 sequence (looked up) 1: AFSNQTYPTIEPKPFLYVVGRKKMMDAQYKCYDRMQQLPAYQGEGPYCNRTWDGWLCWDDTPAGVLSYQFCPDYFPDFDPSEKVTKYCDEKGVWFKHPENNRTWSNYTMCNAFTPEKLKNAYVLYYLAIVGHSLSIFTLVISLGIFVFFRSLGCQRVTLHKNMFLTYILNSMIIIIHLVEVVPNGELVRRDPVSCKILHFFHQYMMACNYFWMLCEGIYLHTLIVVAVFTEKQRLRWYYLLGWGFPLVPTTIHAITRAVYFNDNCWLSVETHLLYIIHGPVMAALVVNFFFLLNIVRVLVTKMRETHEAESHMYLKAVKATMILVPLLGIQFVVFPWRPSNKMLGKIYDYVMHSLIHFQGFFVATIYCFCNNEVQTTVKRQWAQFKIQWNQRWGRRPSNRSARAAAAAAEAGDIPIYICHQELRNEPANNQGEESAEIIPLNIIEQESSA
T1 sequence (looked up) 2: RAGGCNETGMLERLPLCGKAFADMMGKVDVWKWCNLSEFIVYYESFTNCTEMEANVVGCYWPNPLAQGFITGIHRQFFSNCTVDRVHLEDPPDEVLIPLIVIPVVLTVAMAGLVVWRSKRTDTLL

B1: [19CD]-isoGlu-R-C( )-GTAT-C( )-ATERLAHFLNRSSF-Gly(Me)-A-Ile(Me)-LSSTEVGSST-Hyp-NH2 (Compd. 29) (peptide)
peptide: {C20 diacid}-[γGlu]RCGTATCATERLAHFLNRSSF[Sar]A[NMeI]LSSTEVGSST[Hyp]-NH2
modifications: disulfide 3-8
SMILES: CC[C@H](C)[C@@H](C(=O)N[C@@H](CC(C)C)C(=O)N[C@@H](CO)C(=O)N[C@@H](CO)C(=O)N[C@H](C(=O)N[C@@H](CCC(=O)O)C(=O)N[C@H](C(=O)NCC(=O)N[C@@H](CO)C(=O)N[C@@H](CO)C(=O)N[C@H](C(=O)N1C[C@H](O)C[C@H]1C(N)=O)[C@@H](C)O)C(C)C)[C@@H](C)O)N(C)C(=O)[C@H](C)NC(=O)CN(C)C(=O)[C@H](Cc1ccccc1)NC(=O)[C@H](CO)NC(=O)[C@H](CO)NC(=O)[C@H](CCCNC(=N)N)NC(=O)[C@H](CC(N)=O)NC(=O)[C@H](CC(C)C)NC(=O)[C@H](Cc1ccccc1)NC(=O)[C@H](Cc1c[nH]cn1)NC(=O)[C@H](C)NC(=O)[C@H](CC(C)C)NC(=O)[C@H](CCCNC(=N)N)NC(=O)[C@H](CCC(=O)O)NC(=O)[C@@H](NC(=O)[C@H](C)NC(=O)[C@@H]1CSSC[C@H](NC(=O)[C@H](CCCNC(=N)N)NC(=O)CC[C@H](NC(=O)CCCCCCCCCCCCCCCCCCC(=O)O)C(=O)O)C(=O)NCC(=O)N[C@@H]([C@@H](C)O)C(=O)N[C@@H](C)C(=O)N[C@@H]([C@@H](C)O)C(=O)N1)[C@@H](C)O
B2: [19CD]-isoGlu-R-C( )-GTAT-C( )-ATERLAHFLHRSSF-Gly(Me)-A-Ile(Me)-LSSTEVGSST-Hyp-NH2 (Compd. 30) (peptide)
peptide: {C20 diacid}-[γGlu]RCGTATCATERLAHFLHRSSF[Sar]A[NMeI]LSSTEVGSST[Hyp]-NH2
modifications: disulfide 3-8
SMILES: CC[C@H](C)[C@@H](C(=O)N[C@@H](CC(C)C)C(=O)N[C@@H](CO)C(=O)N[C@@H](CO)C(=O)N[C@H](C(=O)N[C@@H](CCC(=O)O)C(=O)N[C@H](C(=O)NCC(=O)N[C@@H](CO)C(=O)N[C@@H](CO)C(=O)N[C@H](C(=O)N1C[C@H](O)C[C@H]1C(N)=O)[C@@H](C)O)C(C)C)[C@@H](C)O)N(C)C(=O)[C@H](C)NC(=O)CN(C)C(=O)[C@H](Cc1ccccc1)NC(=O)[C@H](CO)NC(=O)[C@H](CO)NC(=O)[C@H](CCCNC(=N)N)NC(=O)[C@H](Cc1c[nH]cn1)NC(=O)[C@H](CC(C)C)NC(=O)[C@H](Cc1ccccc1)NC(=O)[C@H](Cc1c[nH]cn1)NC(=O)[C@H](C)NC(=O)[C@H](CC(C)C)NC(=O)[C@H](CCCNC(=N)N)NC(=O)[C@H](CCC(=O)O)NC(=O)[C@@H](NC(=O)[C@H](C)NC(=O)[C@@H]1CSSC[C@H](NC(=O)[C@H](CCCNC(=N)N)NC(=O)CC[C@H](NC(=O)CCCCCCCCCCCCCCCCCCC(=O)O)C(=O)O)C(=O)NCC(=O)N[C@@H]([C@@H](C)O)C(=O)N[C@@H](C)C(=O)N[C@@H]([C@@H](C)O)C(=O)N1)[C@@H](C)O
B3: [19CD]-isoGlu-R-C( )-GTAT-C( )-ATERLAHFLVRSSF-Gly(Me)-A-Ile(Me)-LSSTEVGSST-Hyp-NH2 (Compd. 31) (peptide)
peptide: {C20 diacid-γGlu}-RCGTATCATERLAHFLVRSSF[Sar]A[NMeI]LSSTEVGSST[Hyp]-NH2
modifications: disulfide 2-7
SMILES: CC[C@H](C)[C@@H](C(=O)N[C@@H](CC(C)C)C(=O)N[C@@H](CO)C(=O)N[C@@H](CO)C(=O)N[C@H](C(=O)N[C@@H](CCC(=O)O)C(=O)N[C@H](C(=O)NCC(=O)N[C@@H](CO)C(=O)N[C@@H](CO)C(=O)N[C@H](C(=O)N1C[C@H](O)C[C@H]1C(N)=O)[C@@H](C)O)C(C)C)[C@@H](C)O)N(C)C(=O)[C@H](C)NC(=O)CN(C)C(=O)[C@H](Cc1ccccc1)NC(=O)[C@H](CO)NC(=O)[C@H](CO)NC(=O)[C@H](CCCNC(=N)N)NC(=O)[C@@H](NC(=O)[C@H](CC(C)C)NC(=O)[C@H](Cc1ccccc1)NC(=O)[C@H](Cc1c[nH]cn1)NC(=O)[C@H](C)NC(=O)[C@H](CC(C)C)NC(=O)[C@H](CCCNC(=N)N)NC(=O)[C@H](CCC(=O)O)NC(=O)[C@@H](NC(=O)[C@H](C)NC(=O)[C@@H]1CSSC[C@H](NC(=O)[C@H](CCCNC(=N)N)NC(=O)CC[C@H](NC(=O)CCCCCCCCCCCCCCCCCCC(=O)O)C(=O)O)C(=O)NCC(=O)N[C@@H]([C@@H](C)O)C(=O)N[C@@H](C)C(=O)N[C@@H]([C@@H](C)O)C(=O)N1)[C@@H](C)O)C(C)C
B4: [19CD]-isoGlu-R-C( )-GTAT-C( )-ATERLAHFLQRSSF-Gly(Me)-A-Ile(Me)-LSSTEVGSFT-Hyp-NH2 (Compd. 32) (peptide)
peptide: {C20 diacid}-[γGlu]RCGTATCATERLAHFLQRSSF[Sar]A[NMeI]LSSTEVGSFT[Hyp]-NH2
modifications: disulfide 3-8
SMILES: CC[C@H](C)[C@@H](C(=O)N[C@@H](CC(C)C)C(=O)N[C@@H](CO)C(=O)N[C@@H](CO)C(=O)N[C@H](C(=O)N[C@@H](CCC(=O)O)C(=O)N[C@H](C(=O)NCC(=O)N[C@@H](CO)C(=O)N[C@@H](Cc1ccccc1)C(=O)N[C@H](C(=O)N1C[C@H](O)C[C@H]1C(N)=O)[C@@H](C)O)C(C)C)[C@@H](C)O)N(C)C(=O)[C@H](C)NC(=O)CN(C)C(=O)[C@H](Cc1ccccc1)NC(=O)[C@H](CO)NC(=O)[C@H](CO)NC(=O)[C@H](CCCNC(=N)N)NC(=O)[C@H](CCC(N)=O)NC(=O)[C@H](CC(C)C)NC(=O)[C@H](Cc1ccccc1)NC(=O)[C@H](Cc1c[nH]cn1)NC(=O)[C@H](C)NC(=O)[C@H](CC(C)C)NC(=O)[C@H](CCCNC(=N)N)NC(=O)[C@H](CCC(=O)O)NC(=O)[C@@H](NC(=O)[C@H](C)NC(=O)[C@@H]1CSSC[C@H](NC(=O)[C@H](CCCNC(=N)N)NC(=O)CC[C@H](NC(=O)CCCCCCCCCCCCCCCCCCC(=O)O)C(=O)O)C(=O)NCC(=O)N[C@@H]([C@@H](C)O)C(=O)N[C@@H](C)C(=O)N[C@@H]([C@@H](C)O)C(=O)N1)[C@@H](C)O
B5: [19CD]-isoGlu-R-C( )-GTAT-C( )-ATERLAHFLNRSSF-Gly(Me)-A-Ile(Me)-LSSTEVGSFT-Hyp-NH2 (Compd. 33) (peptide)
peptide: {C20 diacid}-[γGlu]RCGTATCATERLAHFLNRSSF[Sar]A[NMeI]LSSTEVGSFT[Hyp]-NH2
modifications: disulfide 3-8
SMILES: CC[C@H](C)[C@@H](C(=O)N[C@@H](CC(C)C)C(=O)N[C@@H](CO)C(=O)N[C@@H](CO)C(=O)N[C@H](C(=O)N[C@@H](CCC(=O)O)C(=O)N[C@H](C(=O)NCC(=O)N[C@@H](CO)C(=O)N[C@@H](Cc1ccccc1)C(=O)N[C@H](C(=O)N1C[C@H](O)C[C@H]1C(N)=O)[C@@H](C)O)C(C)C)[C@@H](C)O)N(C)C(=O)[C@H](C)NC(=O)CN(C)C(=O)[C@H](Cc1ccccc1)NC(=O)[C@H](CO)NC(=O)[C@H](CO)NC(=O)[C@H](CCCNC(=N)N)NC(=O)[C@H](CC(N)=O)NC(=O)[C@H](CC(C)C)NC(=O)[C@H](Cc1ccccc1)NC(=O)[C@H](Cc1c[nH]cn1)NC(=O)[C@H](C)NC(=O)[C@H](CC(C)C)NC(=O)[C@H](CCCNC(=N)N)NC(=O)[C@H](CCC(=O)O)NC(=O)[C@@H](NC(=O)[C@H](C)NC(=O)[C@@H]1CSSC[C@H](NC(=O)[C@H](CCCNC(=N)N)NC(=O)CC[C@H](NC(=O)CCCCCCCCCCCCCCCCCCC(=O)O)C(=O)O)C(=O)NCC(=O)N[C@@H]([C@@H](C)O)C(=O)N[C@@H](C)C(=O)N[C@@H]([C@@H](C)O)C(=O)N1)[C@@H](C)O
B6: [19CD]-isoGlu-R-C( )-GTAT-C( )-ATERLAHFLQRSSF-Gly(Me)-A-Ile(Me)-LSSTEVGSSTP-NH2 (Compd. 34) (peptide)
peptide: {C20 diacid}-[γGlu]RCGTATCATERLAHFLQRSSF[Sar]A[NMeI]LSSTEVGSSTP-NH2
modifications: disulfide 3-8
SMILES: CC[C@H](C)[C@@H](C(=O)N[C@@H](CC(C)C)C(=O)N[C@@H](CO)C(=O)N[C@@H](CO)C(=O)N[C@H](C(=O)N[C@@H](CCC(=O)O)C(=O)N[C@H](C(=O)NCC(=O)N[C@@H](CO)C(=O)N[C@@H](CO)C(=O)N[C@H](C(=O)N1CCC[C@H]1C(N)=O)[C@@H](C)O)C(C)C)[C@@H](C)O)N(C)C(=O)[C@H](C)NC(=O)CN(C)C(=O)[C@H](Cc1ccccc1)NC(=O)[C@H](CO)NC(=O)[C@H](CO)NC(=O)[C@H](CCCNC(=N)N)NC(=O)[C@H](CCC(N)=O)NC(=O)[C@H](CC(C)C)NC(=O)[C@H](Cc1ccccc1)NC(=O)[C@H](Cc1c[nH]cn1)NC(=O)[C@H](C)NC(=O)[C@H](CC(C)C)NC(=O)[C@H](CCCNC(=N)N)NC(=O)[C@H](CCC(=O)O)NC(=O)[C@@H](NC(=O)[C@H](C)NC(=O)[C@@H]1CSSC[C@H](NC(=O)[C@H](CCCNC(=N)N)NC(=O)CC[C@H](NC(=O)CCCCCCCCCCCCCCCCCCC(=O)O)C(=O)O)C(=O)NCC(=O)N[C@@H]([C@@H](C)O)C(=O)N[C@@H](C)C(=O)N[C@@H]([C@@H](C)O)C(=O)N1)[C@@H](C)O

The binders below were run against T1, human amylin receptor 3 (hAMYR3), hCTR2 … (assay: cell-based or functional assay).
B1 was tested, and the “hAMYR3 EC50 (nM); cAMP induction” value was 0.12 nM.
{C20 diacid}-[γGlu]RCNTATCATQRLANFLHRSSF[Sar]A[NMeI]LSSTEVGSETP-NH2 (disulfide 3-8) [[19CD]-isoGlu-R-C( )-NTAT-C( )-ATQRLANFLHRSSF-Gly(Me)-A-Ile(Me)-LSSTEVGSETP-NH2 (Compd. 3)] was tested, and the “hAMYR3 EC50 (nM); cAMP induction” value was 0.2 nM.
For B2, the “hAMYR3 EC50 (nM); cAMP induction” value was 0.12 nM.
For B3, the “hAMYR3 EC50 (nM); cAMP induction” value was 0.29 nM.
With B4 the “hAMYR3 EC50 (nM); cAMP induction” value was 0.23 nM.
In the case of B5, the “hAMYR3 EC50 (nM); cAMP induction” value is reported as 0.15 nM.
With B6 the “hAMYR3 EC50 (nM); cAMP induction” value was 0.12 nM.
